# Results taken from patent publication US20230045418A1 (AJOU UNIVERSITY INDUSTRY ACADEMIC COOPERATION FOUNDATION, published 2023).
# Changes are numbered by the printed parent chain.
# B1: TCR-like antibody H9 #1 (IgG form, mouse IgG2a / mouse kappa) (antibody, V domains shown)
# VH: EVQLVQSGAEVKKPGSSVKVSCKASGGTFSSYAISWVRQAPGQGLEWMGGIIPIFGTANYAQKFQGRVTITADESTSTAYMELSSLRSEDTAVYYCARGDLYYYDSSGYPLWYMDYWGQGTLVTVSS
# VL: ETTLTQSPGTLSLSPGERATLSCRASQSVSSSYLAWYQQKPGQAPRLVIYGASSRATGIPDRFSGSGSGTDFTLTISRLEPEDFAVYYCQDYSTYPAFTFGQGTKLEIR
# notes: also called #1 clone in IgG form
# B2: TCR-like antibody H9 #1-17 (IgG form, mouse IgG2a / mouse kappa) (antibody, V domains shown)
# VH: B1 VH with G50S, T57V, N59E, Q62H
# VL: B1 VL with S54T, A56P
# B3: TCR-like antibody H9 #1-30 (IgG form, mouse IgG2a / mouse kappa) (antibody, V domains shown)
# VH: B1 VH with G50S, T57A, N59E
# VL: B1 VL with A56P, T57R
# B4: TCR-like antibody H9 (chimeric full-length IgG, mouse IgG2a / mouse kappa) (antibody, V domains shown)
# VH: B1 VH with L111R, W112Y, M114F
# VL: B1 VL with D91H, Y95S, A97G
# notes: also called H9 clone; H9 antibody
# B5: TCR-like antibody H9 #38 (IgG form, mouse IgG2a / mouse kappa) (antibody, V domains shown)
# VH: B1 VH with L111W, W112Y
# VL: B1 VL with D91H, Y92S, S93Y, T94A, Y95F, A97G
# notes: also called #38 clone in IgG form
# What was measured:
# [1] = target: T1, cell-surface HPVE11-19/HLA-A*02:01 complex (HPV16; human); assay: flow cytometry, MDA-MB-231 pulsed with HPVE11-19 peptide, Alexa647 anti-mouse Fc
# T1 construct: whole, on cells
# [2] = target: T2, cell-surface CMVP495-503/HLA-A*02:01 complex (human cytomegalovirus (CMV); human); assay: flow cytometry, MDA-MB-231 pulsed with 4 µM CMVP495-503 peptide, Alexa647 anti-mouse Fc
# T2 construct: whole, on cells; also called CMV pp65 peptide complex
# Procedure: After completion of pulsing, the cells were washed with a FACS buffer and then centrifuged at 1300 rpm for 3 minutes to remove the supernatant. […] After washing each sample with 1 ml of a FACS buffer, a F(ab′)2 antibody that specifically recognizes Alexa647 (red fluorescence)-conjugated mouse Fc was diluted 1:600 in 100 μl of a FACS buffer, followed by reaction at 4° C. for 30 minutes.
# [3] = target: T2, cell-surface CMVP495-503/HLA-A*02:01 …; assay: flow cytometry, 500 nM antibody on MDA-MB-231 cells pulsed with 50 µM peptide
# [4] = target: T2, cell-surface CMVP495-503/HLA-A*02:01 …; assay: flow cytometry, cells pulsed with 50 µM CMVP495-503 peptide, Alexa647 anti-mouse Fc
# Procedure: After washing each sample with 1 ml of a FACS buffer, a F(ab′)2 antibody (Jackson ImmunoResearch, USA) that specifically recognizes Alexa647 (red fluorescence)-conjugated mouse Fc (Jackson ImmunoResearch, USA) was diluted 1:600 in 100 μl of a FACS buffer, followed by reaction at 4° C. for 30 minutes.
# After completion of pulsing, the cells were washed with a FACS buffer and centrifuged at 1300 rpm for 3 minutes to remove the supernatant. […] After washing each sample with 1 ml of a FACS buffer, a F(ab′)2 antibody that specifically recognizes Alexa647 (red fluorescence)-conjugated mouse Fc was diluted 1:600 in 100 μl of a FACS buffer, followed by reaction at 4° C. for 30 minutes.
Binder,binding result [1],binding result [2],binding result [3],binding result [4]
B1,no binding (tested: 50 nM),binds,,
B2,no binding (tested: 50 nM),binds,,
B3,no binding (tested: 50 nM),,,
B4,no binding (tested: 50 nM),,binds,
B5,,,,binds
